# Experimental data reported in article PMC12070368 (ACS Applied Nano Materials, 2025).
# T1: Ebolavirus glycoprotein (EGP) of the Zaire strain (Zaire ebolavirus, UniProt Q05320 33-650)
# T1 sequence: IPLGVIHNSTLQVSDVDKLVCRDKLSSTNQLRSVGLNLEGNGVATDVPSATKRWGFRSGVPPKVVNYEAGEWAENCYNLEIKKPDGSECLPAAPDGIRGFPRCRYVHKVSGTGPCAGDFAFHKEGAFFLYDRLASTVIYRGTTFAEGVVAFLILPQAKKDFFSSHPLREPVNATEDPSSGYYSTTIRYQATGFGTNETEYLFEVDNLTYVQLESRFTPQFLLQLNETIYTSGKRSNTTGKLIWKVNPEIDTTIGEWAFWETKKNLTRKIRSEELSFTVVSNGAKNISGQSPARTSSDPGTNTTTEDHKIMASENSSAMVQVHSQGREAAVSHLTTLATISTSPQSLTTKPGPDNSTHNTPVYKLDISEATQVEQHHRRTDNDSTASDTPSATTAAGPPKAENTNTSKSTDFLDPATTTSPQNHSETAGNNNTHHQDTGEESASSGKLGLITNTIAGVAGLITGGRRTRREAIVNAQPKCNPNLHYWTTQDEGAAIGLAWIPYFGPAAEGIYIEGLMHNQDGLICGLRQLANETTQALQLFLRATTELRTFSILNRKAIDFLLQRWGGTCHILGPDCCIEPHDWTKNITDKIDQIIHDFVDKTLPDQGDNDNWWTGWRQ
# Target: T1, Ebolavirus glycoprotein (EGP) of the …
# Conditions: both partners purified
binder,measurement,value
"TIM-1 (receptor, UniProt Q96D42 21-295, looked up) SVKVGGEAGPSVTLPCHYSGAVTSMCWNRGSCSLFTCQNGIVWTNGTHVTYRKDTRYKLLGDLSRRDVSLTIENTAVSDSGVYCCRVEHRGWFNDMKITVSLEIVPPKVTTTPIVTTVPTVTTVRTSTTVPTTTTVPMTTVPTTTVPTTMSIPTTTTVLTTMTVSTTTSVPTTTSIPTTTSVPVTTTVSTFVPPMPLPRQNHEPVATSPSSPQPAETHPTTLQGAIRREPTSSPLYSYTTDGNDTVTESSDGLWNNNQTQLFLEHSLLTANTTKG",ΔSPR,35 nm
